Results taken from article PMC7350285.

Tests used:
BRG1 AT-BD R1502H = BRG1 AT-BD R1502H (human, UniProt P51532 1434-1569, R1502H); experiment: BLI
BRG1 AT-BD P1456L = BRG1 AT-BD P1456L (human, UniProt P51532 1434-1569, P1456L); experiment: BLI
BRG1 AT-BD P1456L, sequence (P51532 1434-1569 P1456L): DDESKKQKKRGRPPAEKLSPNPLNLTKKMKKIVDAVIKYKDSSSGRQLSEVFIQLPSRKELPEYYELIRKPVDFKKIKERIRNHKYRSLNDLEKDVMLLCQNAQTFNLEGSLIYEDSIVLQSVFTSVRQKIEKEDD

BRG1 AT-BD R1502H, sequence (P51532 1434-1569 R1502H): as the sequence (P51532 1434-1569 P1456L) above, with L23P, R69H counted along it

B1: biotinylated SELEX-DNA (dsDNA)
DNA 1: CCTCAATTAAATCTC
DNA 2: GAGATTTAATTGAGG
Work on B1 yielded a Kd (BRG1 AT-BD R1502H) of 2400 ± 200 nM and a Kd (BRG1 AT-BD P1456L) of 1200 ± 100 nM.
